This note sets out measurements from article PMC314469, “Protein Interaction Networks by Proteome Peptide Scanning” (PLoS Biology, 2004).

Sequences and labels used below:
T1: Myo5 SH3 (MYO5_YEAST), Q04439
T1 chain: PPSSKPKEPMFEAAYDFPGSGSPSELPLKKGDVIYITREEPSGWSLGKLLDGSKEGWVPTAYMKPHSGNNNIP

In this test the target is T1, Myo5 SH3 (MYO5_YEAST), Q04439. Put plainly: SPOT array.
Consider HLVVWNPPILPQHE [YDR291W 495-508], for which the normalised SPOT signal, Boehringer light units (BLU); mean over the file's lines of this peptide stood at 118.

As for HFLAYTNPRAPGKL [YIL054W 29-42], the normalised SPOT signal, Boehringer light units (BLU); mean over the file's lines of this peptide came out at 112.

As for IFFKLIHPFLPILH [YIR023W 322-335], the normalised SPOT signal, Boehringer light units (BLU); mean over the file's lines of this peptide turned out to be 503.

The molecule ILQILFEPMPPFNS [YBL037W 656-669] gave a normalised SPOT signal, Boehringer light units (BLU); mean over the file's lines of this peptide of 200.

On to GPSQFAPPPPPPGV [YCR077C 189-202], for which the normalised SPOT signal, Boehringer light units (BLU); mean over the file's lines of this peptide was found to be 20400.

HEYNLALPKFPILF [YMR088C 27-40]: the normalised SPOT signal, Boehringer light units (BLU); mean over the file's lines of this peptide worked out at 147.

For HEHNYAIPYTPATF [YBR238C 43-56], the normalised SPOT signal, Boehringer light units (BLU); mean over the file's lines of this peptide is 129.

On to IARSFTIPFLPKIP [YLR164W 20-33], for which the normalised SPOT signal, Boehringer light units (BLU); mean over the file's lines of this peptide worked out at 204.

HPIHLQPPVPPVYK [YOR032C 88-101] yielded a normalised SPOT signal, Boehringer light units (BLU); mean over the file's lines of this peptide of 318.

HFYEYVYPSLPFIE [YAL051W 349-362] gave a normalised SPOT signal, Boehringer light units (BLU); mean over the file's lines of this peptide of 152.

HLFHLTTPQDPRLL [YKL191W 249-262]: the normalised SPOT signal, Boehringer light units (BLU); mean over the file's lines of this peptide turned out to be 246.

HEKLYHNPSLPAQS [YKL217W 53-66] came in with a normalised SPOT signal, Boehringer light units (BLU); mean over the file's lines of this peptide of 78.1.

In turn, ILQELSLPSRPVMP [YGR002C 427-440] gave a normalised SPOT signal, Boehringer light units (BLU); mean over the file's lines of this peptide of 51.9.

Molecule IATMYPIPAYPDLL [YJL127C 53-66] registered a normalised SPOT signal, Boehringer light units (BLU); mean over the file's lines of this peptide of 96.9.

Take IFQSLLHPELPIII [YPR169W 50-63]: the normalised SPOT signal, Boehringer light units (BLU); mean over the file's lines of this peptide stood at 240.

The molecule GPIIHPGPEPPRYD [YPR030W 1104-1117] yielded a normalised SPOT signal, Boehringer light units (BLU); mean over the file's lines of this peptide of 205.

HPYMMVYPMSPPPP [YHL024W 649-662] registered a normalised SPOT signal, Boehringer light units (BLU); mean over the file's lines of this peptide of 563.

On to ILVAYGLPVSPDEK [YDR127W 327-340], for which the normalised SPOT signal, Boehringer light units (BLU); mean over the file's lines of this peptide stood at 167.

Molecule IAGMLMVPESPRFL [YMR011W 241-254] came in with a normalised SPOT signal, Boehringer light units (BLU); mean over the file's lines of this peptide of 255.

As to HPSGLNSPKLPPLP [YNL152W 370-383], the normalised SPOT signal, Boehringer light units (BLU); mean over the file's lines of this peptide is 457.

In turn, HATLYWAPVSPLKS [YLR305C 1420-1433] returned a normalised SPOT signal, Boehringer light units (BLU); mean over the file's lines of this peptide of 151.

The molecule IPLPHQPPPLPIYS [YMR182C 149-162] gave a normalised SPOT signal, Boehringer light units (BLU); mean over the file's lines of this peptide of 53600.

As for IAESLGVPWEPVDL [YGR088W 547-560], the normalised SPOT signal, Boehringer light units (BLU); mean over the file's lines of this peptide was 143.

With ILTLLKMPEVPNSV [YDR395W 823-836], the normalised SPOT signal, Boehringer light units (BLU); mean over the file's lines of this peptide stood at 172.

The molecule IERVWNGPVEPSDE [YIL067C 73-86] came in with a normalised SPOT signal, Boehringer light units (BLU); mean over the file's lines of this peptide of 180.

Turning to IEPDFIEPDAPLAA [YGL198W 10-23], the normalised SPOT signal, Boehringer light units (BLU); mean over the file's lines of this peptide is 61.4.

For the molecule ILHQLGAPSIPENL [YBL004W 2280-2293], the normalised SPOT signal, Boehringer light units (BLU); mean over the file's lines of this peptide worked out at 174.

HLARYIFPPNPVFH [YBR007C 426-439]: the normalised SPOT signal, Boehringer light units (BLU); mean over the file's lines of this peptide stood at 279.

Turning to IAKPYVLPFFPLYA [YEL031W 24-37], the normalised SPOT signal, Boehringer light units (BLU); mean over the file's lines of this peptide stood at 247.

GPLLLTVPELPEAD [YLR338W 178-191] had a normalised SPOT signal, Boehringer light units (BLU); mean over the file's lines of this peptide of 162.

For HPEYLSLPFEPYSF [YLR054C 108-121], the normalised SPOT signal, Boehringer light units (BLU); mean over the file's lines of this peptide stood at 213.

For GWSTYIPPFNPLEI [YNL088W 836-849], the normalised SPOT signal, Boehringer light units (BLU); mean over the file's lines of this peptide amounted to 114.

Take HAWDMRSPHRPFYS [YDR128W 140-153]: the normalised SPOT signal, Boehringer light units (BLU); mean over the file's lines of this peptide worked out at 822.

In turn, ILPVLNIPLPPQEK [YER132C 923-936] displayed a normalised SPOT signal, Boehringer light units (BLU); mean over the file's lines of this peptide of 21.6.

Molecule HAEAFEDPSIPRIS [YGL195W 985-998] returned a normalised SPOT signal, Boehringer light units (BLU); mean over the file's lines of this peptide of 325.

Take GWEPFSLPKDPKVV [YML018C 282-295]: the normalised SPOT signal, Boehringer light units (BLU); mean over the file's lines of this peptide came to 75.9.

IPTSHAPPLPPTAP [YLR337C 317-330]: the normalised SPOT signal, Boehringer light units (BLU); mean over the file's lines of this peptide is 43600.

Take HLDSFSPPFSPSTT [YPL230W 298-311]: the normalised SPOT signal, Boehringer light units (BLU); mean over the file's lines of this peptide came to 121.

As to ILIFLWIPDDPSKA [YJR152W 263-276], the normalised SPOT signal, Boehringer light units (BLU); mean over the file's lines of this peptide was determined as 1370.

The molecule IARPLSVPGSPKVR [YFR015C 646-659] had a normalised SPOT signal, Boehringer light units (BLU); mean over the file's lines of this peptide of 383.

HFNDLQSPAQPQQS [YMR164C 264-277]: the normalised SPOT signal, Boehringer light units (BLU); mean over the file's lines of this peptide was 92.5.

Consider ILVPHLDPIDPWEA [YJR111C 130-143], for which the normalised SPOT signal, Boehringer light units (BLU); mean over the file's lines of this peptide turned out to be 166.

In the case of IEEGHLDPEAPDKL [YOR301W 105-118], the normalised SPOT signal, Boehringer light units (BLU); mean over the file's lines of this peptide turned out to be 84.8.

In turn, HLTDLSPPGTPPTM [YMR165C 272-285] displayed a normalised SPOT signal, Boehringer light units (BLU); mean over the file's lines of this peptide of 261.

Take GPEFWISPDTPLKF [YJL093C 632-645]: the normalised SPOT signal, Boehringer light units (BLU); mean over the file's lines of this peptide worked out at 87.4.

For GWVVYPPPPKPSYN [YML035C 223-236], the normalised SPOT signal, Boehringer light units (BLU); mean over the file's lines of this peptide is 453.

On to HFLSLDPPIDPNNL [YMR075W 283-296], for which the normalised SPOT signal, Boehringer light units (BLU); mean over the file's lines of this peptide was 122.

For the molecule GWPVYNYPMQPTTE [YER109C 286-299], the normalised SPOT signal, Boehringer light units (BLU); mean over the file's lines of this peptide was 168.

HAVLLNPPVAPTAE [YPL012W 184-197] registered a normalised SPOT signal, Boehringer light units (BLU); mean over the file's lines of this peptide of 228.

The molecule IEITHSEPAIPYRE [YNL163C 742-755] gave a normalised SPOT signal, Boehringer light units (BLU); mean over the file's lines of this peptide of 114.

For the molecule IEFDLSKPFTPFQQ [YGL173C 578-591], the normalised SPOT signal, Boehringer light units (BLU); mean over the file's lines of this peptide is 134.

With ILSAYNSPKVPADI [YGR175C 270-283], the normalised SPOT signal, Boehringer light units (BLU); mean over the file's lines of this peptide amounted to 81.4.

HPHPHPHPHTPTHT [YHR217C 23-36] registered a normalised SPOT signal, Boehringer light units (BLU); mean over the file's lines of this peptide of 238.

Regarding IEVPMEYPFKPPKM [YDR177W 56-69], the normalised SPOT signal, Boehringer light units (BLU); mean over the file's lines of this peptide was 384.
